Results as given in article PMC5038948, “The Role of Neutrophil Proteins on the Amyloid Beta-RAGE Axis” (PLoS ONE, 2016).

Experiments:
Aβ1–42 [1] = molecular target: T1, Aβ1–42 (Homo sapiens, UniProt P05067); assay: ELISA: binding of Aβ1–42 to coated neutrophil proteins; details: for Log binding (Aβ1–42): 0.5 μg/well coated protein, with protease inhibitor cocktail, log OD 492 nm, mean ± SEM, n = 3; for maximum absorbance value for Aβ1–42 binding: ELISA with protease inhibitors, BSA subtracted, nonlinear regression fit
T1 construct: Amyloid beta 1–42 (Aβ1–42), a known RAGE ligand; purchased Bachem (Torrance, CA)
Protocol: (§1) The plates were washed three times with PBS containing 0.05% tween (PBST), and then blocked in PBST containing 3% bovine serum albumin (BSA). Indicated proteins were added to the plate in 50 μL PBST containing 0.1% BSA and incubated at 37°C for 70 mins. Wells were washed four times with PBST, and then incubated with 50 μL of goat anti-RAGE primary antibody (0.5 μg/ml) or mouse anti-APP/Aβ antibody (0.5 μg/ml-1 μg/ml) for 1 h. After washing the wells four times with PBST, 50 μL of rabbit anti-goat at 0.16 μg/ml or donkey anti-mouse at 0.04–0.08 μg/ml secondary antibodies were added for 1 h at room temperature.
(§2) All statistics were performed using Graph Pad Prism 6 (GraphPad Software, La Jolla, CA). Data are represented as mean± SEM of results. […] Two-way analysis of variances (ANOVAs) were performed with Dunnett’s multiple comparison tests. […] Kruskal-Wallis tests with Dunn’s multiple comparison tests were used to analyze binding by Far-Western dot blotting (see figure legends 3 and 6 for details on multiple comparison tests). […] To obtain dissociation constants (Kd), half-maximal inhibitory concentrations (IC50), and maximum absorbance values, BSA was subtracted as background and values were fitted to a curve of nonlinear regression.

Aβ1–42 [2] = molecular target: T1, Aβ1–42; assay: Far-Western dot blot: binding of Aβ1–42 to spotted neutrophil proteins; details: Aβ1–42 […] (56 nM) with protease inhibitor cocktail; 1 μg spotted protein
Protocol: After spotting, membranes were rinsed with ultrapure water, and Ponceau S (Sigma Aldrich) was used to stain for spotted proteins. Ponceau S was rinsed off with ultrapure water, and membrane blots were blocked for 2 h at room temperature in PBST containing 3% BSA. […] Blots were washed three times with PBST for 10 min, and then incubated with either rabbit anti-RAGE primary antibody (0.8μg/ml) or mouse anti-APP/Aβ (0.25μg/ml) for 2 h at room temperature. Blots were washed three times with PBST for 10 min, and then incubated with donkey anti-rabbit or donkey anti-mouse secondary antibodies at 0.04μg/ml for 45 min at room temperature. Blots were washed three times with PBST. Enhanced chemiluminescent or SuperSignal West femto maximum sensitivity substrates (Pierce) were used to develop blots. Mean dot densities were quantified and normalized to ponceau S dot densities using Image J software (National Institutes of Health (NIH), Bethesda, MD).
Blots were incubated with rocking overnight at 4°C.
as §2

RAGE Fc chimera [3] = molecular target: T2, RAGE Fc chimera (Homo sapiens, UniProt Q15109); assay: ELISA: binding of RAGE to coated neutrophil proteins; parameters: purchased R&D Systems Inc. (Minneapolis, MN); details: for maximum absorbance value for RAGE binding: ELISA, BSA subtracted as background, nonlinear regression fit; for Log binding (RAGE): wells coated 0.5 μg/well protein, log-transformed OD 492 nm, mean ± SEM
Protocol: as §1
Goat anti-RAGE primary antibody at 0.5 μg/ml was used to detect bound RAGE.
as §2

RAGE Fc chimera [4] = molecular target: T2, RAGE Fc chimera; assay: Far-Western dot blot: binding of RAGE to spotted proteins ± GM-0111; parameters: purchased R&D Systems Inc. (Minneapolis, MN); details: 1 μg spotted protein (0.5 μg Aβ1–42)
Protocol: as §2

Aβ1–42 binding to RAGE = molecular target: T3, Aβ1–42 binding to RAGE (Homo sapiens, UniProt Q15109); assay: ELISA: competitive inhibition of Aβ1–42 binding to RAGE by neutrophil proteins added simultaneously
T3 construct: purchased R&D Systems Inc. (RAGE Fc chimera); Bachem (Aβ1–42)
Protocol: as §1, §2

RAGE Fc chimera [5] = molecular target: T2, RAGE Fc chimera; assay: ELISA: Aβ1–42 binding to RAGE after pre-incubation of Aβ1–42 with neutrophil proteins; parameters: purchased R&D Systems Inc. (RAGE Fc chimera); Bachem (Aβ1–42)
Protocol: as §1
In this set of experiments, the maxisorp plates were coated with RAGE Fc chimera (0.5 μg/well, 83.3 nM) overnight at 4°C.
as §2

T2 sequence (Q15109 with tags, fused parts or gaps limits assumed): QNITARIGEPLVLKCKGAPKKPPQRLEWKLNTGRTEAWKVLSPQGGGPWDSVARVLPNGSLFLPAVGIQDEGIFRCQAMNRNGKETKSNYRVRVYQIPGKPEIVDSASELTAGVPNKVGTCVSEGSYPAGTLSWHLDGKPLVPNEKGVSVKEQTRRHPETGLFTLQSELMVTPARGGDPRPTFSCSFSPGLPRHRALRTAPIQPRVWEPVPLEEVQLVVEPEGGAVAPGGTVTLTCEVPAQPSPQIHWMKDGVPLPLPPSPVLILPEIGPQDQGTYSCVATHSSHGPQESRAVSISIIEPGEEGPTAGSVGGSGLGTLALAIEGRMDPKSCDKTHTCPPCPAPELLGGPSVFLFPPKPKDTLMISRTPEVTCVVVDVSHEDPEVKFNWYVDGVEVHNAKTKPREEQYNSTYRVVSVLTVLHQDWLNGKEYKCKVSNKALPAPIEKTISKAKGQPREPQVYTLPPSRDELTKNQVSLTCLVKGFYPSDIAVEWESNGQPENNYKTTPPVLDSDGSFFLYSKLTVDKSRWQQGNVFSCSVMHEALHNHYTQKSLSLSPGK
T3 sequence (Q15109 with tags, fused parts or gaps limits assumed): as above

Row | Substance | Log binding (Aβ1–42) (Aβ1–42 [1]; Aβ1–42 0 nM (background)) | Log binding (Aβ1–42) (Aβ1–42 [1]; Aβ1–42 3.47 nM) | Log binding (Aβ1–42) (Aβ1–42 [1]; Aβ1–42 13.89 nM) | Log binding (Aβ1–42) (Aβ1–42 [1]; Aβ1–42 27.78 nM) | Log binding (Aβ1–42) (Aβ1–42 [1]; Aβ1–42 55.56 nM) | maximum absorbance value for Aβ1–42 binding (Aβ1–42 [1]) | binding of Aβ1–42 (far-Western dot blot) (Aβ1–42 [2]) | maximum absorbance value for RAGE binding (RAGE Fc chimera [3]) | Log binding (RAGE) (RAGE Fc chimera [3]; RAGE 0 nM (background)) | Log binding (RAGE) (RAGE Fc chimera [3]; RAGE 0.83 nM) | Log binding (RAGE) (RAGE Fc chimera [3]; RAGE 1.67 nM) | Log binding (RAGE) (RAGE Fc chimera [3]; RAGE 3.33 nM) | binding of RAGE (far-Western dot blot) (RAGE Fc chimera [4]) | IC50 (Aβ1–42 binding to RAGE; read-out: IC50 for inhibition of Aβ1–42 binding to RAGE, Aβ1–42 11 nM added simultaneously with the protein to RAGE-coated wells, absence of protease inhibitors) | inhibition of Aβ1–42 binding to RAGE in the presence of protease inhibitors (Aβ1–42 binding to RAGE; with protease inhibitor cocktail, Aβ1–42 11 nM) | Log binding (Aβ1–42) (Aβ1–42 [1]; Aβ1–42 […]) | maximum absorbance value for Aβ1–42 binding to RAGE (RAGE Fc chimera [5]; Aβ1–42 pre-incubated with neutrophil elastase 2 μg/ml) | Kd (RAGE Fc chimera [5]; read-out: KD value for Aβ1–42 binding to RAGE, Aβ1–42 pre-incubated overnight 4°C with neutrophil elastase 2 μg/ml (80 nM))
1 | cathepsin G | • -0.884±0.103 • p = 0.0004 | • -0.368±0.157 • p<0.0001 | • 0.019±0.165 • p<0.0001 | • 0.151±0.149 • p<0.0001 | • 0.310±0.125 • p<0.0001 | 3.54 | strong binding | 2.14 | -0.426 | • 0.101±0.084 • p<0.0001 | • 0.166±0.092 • p<0.0001 | • 0.192±0.096 • p<0.0001 | not significantly higher than RAGE binding to BSA |  |  |  |  | 
2 | neutrophil elastase | -1.061 | -0.961 | • -0.720±0.151 • p = 0.0064 | • -0.414±0.154 • p<0.0001 | • -0.146±0.153 • p<0.0001 | 5.89 | low binding | 1.11 | -0.756 | -0.376 | • -0.274±0.113 • p = 0.046 | • -0.121±0.104 • p = 0.003 | did not detect visible binding | 4.85 nM | No inhibition | • -0.890±0.127 • p = 0.0064 | 0.15 OD 492 nm | 131 nM
3 | bovine serum albumin [BSA, reference compound] |  |  |  |  |  |  | No binding |  |  |  |  |  | did not detect visible binding |  |  |  |  | 
